The text below walks through data of patent US20260272830A1, “Ocular Hydrogel Compositions” (The University of Birmingham, priority 2018, published 2026).

Series [1] can be described thus: hrDecorin release from the fluid gel (ELISA). It counts as physicochemical. Particulars: cumulative release over 4 hours (240 mins), DMEM, 37° C. As for the experimental part: Levels of hrDecorin release from the gel were determined cumulatively, by placing 1 ml of the fluid gel containing hrDecorin in a 6 well plate. Then 2 ml of DMEM was placed over the sample and the plates were incubated at 37° C. At each time point, the media was removed for measurement of hrDecorin, and replaced with fresh media. Decorin release was quantified using an ELISA specific for human Decorin (R&D systems, Minneapolis, USA) in accordance with the manufacturer's protocol.
For orientation: ELISA stands for enzyme-linked immunosorbent assay.

The target of series [2] is T1, collagen type I (rat tail) (Rattus norvegicus, UniProt P02454+P02466).
T1 construct: collagen type I (rat tail; Corning, UK); purchased Corning, UK; host or cells: rat tail (tissue-derived)
The experiment in a line: Collagen fibrillogenesis turbidity assay. It counts as biochemical. Here is the method: Collagen fibrillogenesis: For the dose response curves, 75 μl of PBS was added to each well of a 96 well plate kept on ice. Varying hrDecorin doses were prepared by adding 400 μg/ml of hrDecorin to the first well and subsequently serial diluting (2-fold dilution) across the plate. Following dilution, a further 150 μl of PBS buffer was added to each well. Then, 75 μl of collagen type I (rat tail; Corning, UK) (800 μg/ml) was added to each well and incubated for 2 hours at 37° C. Subsequent absorbance readings were taken using a 405 nm plate reader. Each assay consisted of duplicate blank controls, and triplicate standard dilutions followed by triplicate sample dilutions. Kinetics of fibril formation were determined using a similar setup as the dose response, without serial dilution; incubating the samples within the plate reader, and taking data points every 2 minutes.

Setting [3] is: turbidity at 405 nm, 2 hours at 37° C.

T1 sequence (P02454 152-1207 limits assumed): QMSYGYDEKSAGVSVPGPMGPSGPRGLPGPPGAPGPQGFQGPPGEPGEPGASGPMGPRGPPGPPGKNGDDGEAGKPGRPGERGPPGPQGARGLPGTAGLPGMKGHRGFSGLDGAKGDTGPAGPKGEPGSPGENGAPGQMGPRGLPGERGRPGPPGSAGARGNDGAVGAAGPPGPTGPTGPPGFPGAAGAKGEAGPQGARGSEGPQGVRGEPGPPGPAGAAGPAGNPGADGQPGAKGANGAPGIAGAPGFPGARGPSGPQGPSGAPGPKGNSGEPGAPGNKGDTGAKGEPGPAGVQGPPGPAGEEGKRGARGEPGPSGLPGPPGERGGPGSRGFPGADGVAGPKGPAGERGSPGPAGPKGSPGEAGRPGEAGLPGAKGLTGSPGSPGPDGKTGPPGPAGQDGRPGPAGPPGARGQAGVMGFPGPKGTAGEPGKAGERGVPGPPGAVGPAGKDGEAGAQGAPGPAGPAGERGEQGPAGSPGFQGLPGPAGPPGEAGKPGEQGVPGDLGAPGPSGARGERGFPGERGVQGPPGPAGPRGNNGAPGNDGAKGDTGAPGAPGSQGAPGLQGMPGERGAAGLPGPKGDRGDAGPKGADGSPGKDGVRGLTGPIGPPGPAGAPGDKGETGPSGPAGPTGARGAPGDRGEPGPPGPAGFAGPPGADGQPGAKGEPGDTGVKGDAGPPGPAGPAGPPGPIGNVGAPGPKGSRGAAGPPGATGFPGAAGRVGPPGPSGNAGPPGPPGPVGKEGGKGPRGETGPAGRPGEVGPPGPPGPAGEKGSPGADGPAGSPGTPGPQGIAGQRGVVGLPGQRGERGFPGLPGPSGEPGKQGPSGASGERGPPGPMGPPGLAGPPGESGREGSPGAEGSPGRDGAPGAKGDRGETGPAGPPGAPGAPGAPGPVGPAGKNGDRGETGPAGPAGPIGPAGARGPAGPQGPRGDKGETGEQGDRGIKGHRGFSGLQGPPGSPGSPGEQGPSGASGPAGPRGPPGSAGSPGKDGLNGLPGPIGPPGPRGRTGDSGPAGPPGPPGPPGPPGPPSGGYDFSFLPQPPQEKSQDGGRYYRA
T1 sequence (P02466 86-1125 limits assumed): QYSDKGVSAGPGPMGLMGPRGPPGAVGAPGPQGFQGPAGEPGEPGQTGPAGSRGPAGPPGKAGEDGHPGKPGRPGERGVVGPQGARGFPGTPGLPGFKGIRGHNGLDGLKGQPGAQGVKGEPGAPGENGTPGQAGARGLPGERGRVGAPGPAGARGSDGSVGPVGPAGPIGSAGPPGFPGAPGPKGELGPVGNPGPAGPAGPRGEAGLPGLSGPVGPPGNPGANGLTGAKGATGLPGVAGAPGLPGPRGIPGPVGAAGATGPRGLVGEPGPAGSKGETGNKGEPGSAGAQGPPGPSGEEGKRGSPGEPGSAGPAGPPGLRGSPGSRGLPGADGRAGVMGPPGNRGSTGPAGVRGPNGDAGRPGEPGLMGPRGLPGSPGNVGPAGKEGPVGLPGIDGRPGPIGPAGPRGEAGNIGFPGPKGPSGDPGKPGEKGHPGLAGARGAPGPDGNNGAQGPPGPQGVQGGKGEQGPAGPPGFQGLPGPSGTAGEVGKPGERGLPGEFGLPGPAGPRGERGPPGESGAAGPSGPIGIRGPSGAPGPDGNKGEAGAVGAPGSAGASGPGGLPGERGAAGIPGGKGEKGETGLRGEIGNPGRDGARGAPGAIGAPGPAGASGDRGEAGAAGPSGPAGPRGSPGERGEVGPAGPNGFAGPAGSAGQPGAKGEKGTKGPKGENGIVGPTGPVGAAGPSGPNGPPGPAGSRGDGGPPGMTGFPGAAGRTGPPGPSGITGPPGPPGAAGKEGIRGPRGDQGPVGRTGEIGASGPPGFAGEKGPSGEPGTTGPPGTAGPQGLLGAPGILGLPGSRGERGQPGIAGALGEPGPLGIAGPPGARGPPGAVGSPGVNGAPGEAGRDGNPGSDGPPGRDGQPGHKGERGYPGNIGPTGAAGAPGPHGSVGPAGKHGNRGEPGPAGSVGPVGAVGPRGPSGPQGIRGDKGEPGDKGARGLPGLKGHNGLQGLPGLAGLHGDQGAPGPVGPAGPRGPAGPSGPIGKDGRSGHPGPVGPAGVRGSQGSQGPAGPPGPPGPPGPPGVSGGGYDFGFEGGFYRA

B1: hrDecorin: human recombinant decorin (Galacorin™; Catalent), anti-fibrotic small leucine-rich proteoglycan (protein, UniProt P07585 31-359, looked up)
Decorin: DEASGIGPEVPDDRDFEPSLGPVCPFRCQCHLRVVQCSDLGLDKVPKDLPPDTTLLDLQNNKITEIKDGDFKNLKNLHALILVNNKISKVSPGAFTPLVKLERLYLSKNQLKELPEKMPKTLQELRAHENEITKVRKVTFNGLNQMIVIELGTNPLKSSGIENGAFQGMKKLSYIRIADTNITSIPQGLPPSLTELHLDGNKISRVDAASLKGLNNLAKLGLSFNSISAVDNGSLANTPHLRELHLDNNKLTRVPGGLAEHKYIQVVYLHNNNISVVGSSDFCPPGHNTKKASYSGVSLFSNPVQYWEIQPSTFRCVYVRSAIQLGNYK
On to B1, for which, in series [1], the “rate of release of hrDecorin from the eye drop system” value is “almost linear over time”. Further, in series [2] (setting [3]), the “concentration at which minimum turbidity is achieved, above which no further reduction occurs” value is over 10000 ng/mL and the “critical concentration above which hrDecorin inhibits fibrillogenesis” value was found to be 0.5 μg/ml. Moreover, the “kinetics of fibril formation” value in series [2] (turbidity read every 2 minutes) was “slowing the onset of fibrillogenesis”.
